The source of these data is article PMC4759581, “A DNA aptamer recognising a malaria protein biomarker can function as part of a DNA origami assembly”.

B1: aptamer-staple 87 Middle (ssDNA)
DNA: TCATTACCCGACAATACTGGGCGGTAGAACCATAGTGACCCAGAACAACATATTTAGGC
B2: aptamer-staple 11 Edge (ssDNA)
DNA: CCTAATTTACGCTAACGAGCGTCTAATCAATACTGGGCGGTAGAACCATAGTGACCCAG
B3: aptamer-staple 121 Middle (ssDNA)
DNA: TTTCATTTGGTCAATACTGGGCGGTAGAACCATAGTGACCCAGACCTGTTTATATCGCG
B4: aptamer staple 97 (ssDNA)
DNA: CTAAAGCAAGATAGAACCCTTCTGAATCGTCTTTTTTTTTTTTTTTTTTTTTCTGGGCGGTAGAACCATAGTGACCCAGCCGTCTAC
B5: aptamer staple 79 (ssDNA)
DNA: TGAGGCAGGCGTCAGACTGTAGCGTAGCAAGGTTTTTTTTTTTTTTTTTTTTCTGGGCGGTAGAACCATAGTGACCCAGCCGTCTAC
B6: aptamer staple 76 (ssDNA)
DNA: TATCACCGTACTCAGGAGGTTTAGCGGGGTTTTTTTTTTTTTTTTTTTTTTTCTGGGCGGTAGAACCATAGTGACCCAGCCGTCTAC
B7: aptamer staple 81 (ssDNA)
DNA: CCGGAAACACACCACGGAATAAGTAAGACTCCTTTTTTTTTTTTTTTTTTTTCTGGGCGGTAGAACCATAGTGACCCAGCCGTCTAC
B8: aptamer staple 77 (ssDNA)
DNA: TGCTCAGTCAGTCTCTGAATTTACCAGGAGGTTTTTTTTTTTTTTTTTTTTTCTGGGCGGTAGAACCATAGTGACCCAGCCGTCTAC
B9: aptamer staple 95 (ssDNA)
DNA: CGGAATTATTGAAAGGAATTGAGGTGAAAAATTTTTTTTTTTTTTTTTTTTTCTGGGCGGTAGAACCATAGTGACCCAGCCGTCTAC
B10: aptamer staple 93 (ssDNA)
DNA: GAGCAAAAACTTCTGAATAATGGAAGAAGGAGTTTTTTTTTTTTTTTTTTTTCTGGGCGGTAGAACCATAGTGACCCAGCCGTCTAC
B11: aptamer staple 83 (ssDNA)
DNA: TTATTACGGTCAGAGGGTAATTGAATAGCAGCTTTTTTTTTTTTTTTTTTTTCTGGGCGGTAGAACCATAGTGACCCAGCCGTCTAC
B12: aptamer staple 89 (ssDNA)
DNA: AGAGGCATAATTTCATCTTCTGACTATAACTATTTTTTTTTTTTTTTTTTTTCTGGGCGGTAGAACCATAGTGACCCAGCCGTCTAC
B13: aptamer staple 85 (ssDNA)
DNA: CTTTACAGTTAGCGAACCTCCCGACGTAGGAATTTTTTTTTTTTTTTTTTTTCTGGGCGGTAGAACCATAGTGACCCAGCCGTCTAC
B14: aptamer staple 87 (ssDNA)
DNA: TCATTACCCGACAATAAACAACATATTTAGGCTTTTTTTTTTTTTTTTTTTTCTGGGCGGTAGAACCATAGTGACCCAGCCGTCTAC
B15: aptamer staple 91 (ssDNA)
DNA: TATGTAAACCTTTTTTAATGGAAAAATTACCTTTTTTTTTTTTTTTTTTTTTCTGGGCGGTAGAACCATAGTGACCCAGCCGTCTAC
B16: aptamer-staple 111 Edge (ssDNA)
DNA: AAACCCTCTTTTACCAGTAATAAAAGGGATTCACCAGTCACACGTTTTCTGGGCGGTAGAACCATAGTGACCCAG
B17: aptamer-staple 211 Edge (ssDNA)
DNA: GCTAAATCTTTTCTGTAGCTCAACATGTATTGCTGACTGGGCGGTAGAACCATAGTGACCCAG

One data set addresses T1, Plasmodium falciparum lactate dehydrogenase (PfLDH) (Plasmodium falciparum, UniProt Q71T02 1-316). Briefly: EMSA; 4 C; EMSA: 25 nM strand, 0-2500 nM PfLDH (tetramer concentration in legends; text says Kd per subunit), 25 mM Tris-HCl pH 7.5, 100 mM NaCl, 20 mM imidazole, 25 C 1 h. To be noted: protein: recombinant; chain copies: 4; hairpin. In general terms: In EMSA bound probe runs differently from free probe, usually more slowly.
Regarding B1, the Kd was determined as 1720 ± 244 nM.

Turning to B2, the Kd stood at 596 ± 107 nM.

Consider B3, for which the binding result is “no binding”.

Another data set has as its target T1, Plasmodium falciparum lactate …. The data set can be described thus: EMSA; apparent, 1:1 fit; EMSA: 25 nM strand, 0-2500 nM PfLDH (tetramer concentration in legends; text says Kd per subunit), 25 mM Tris-HCl pH 7.5, 100 mM NaCl, 20 mM imidazole, 25 C 1 h. To be noted: protein: recombinant; chain copies: 4; hairpin.
For B4, the Kd was 760 ± 126 nM.

For B5, the Kd is 826 ± 300 nM.

As for B6, the Kd stood at 965 ± 265 nM.

On to B7, for which the Kd came to 970 ± 254 nM.

For the molecule B8, the Kd came out at 726 ± 186 nM.

Regarding B9, the Kd amounted to 846 ± 161 nM.

As to B10, the Kd was 647 ± 128 nM.

Consider B11, for which the Kd was found to be 1090 ± 183 nM.

On to B12, for which the Kd was found to be 750 ± 95 nM.

Regarding B13, the Kd is 713 ± 161 nM.

Regarding B14, the Kd amounted to 878 ± 154 nM.

In the case of B15, the Kd was 984 ± 177 nM.

Another data set shares this target. Briefly: EMSA; 4 C; Fig. S15 panel assignment of 606/355 unclear; EMSA: 25 nM strand, 0-2500 nM PfLDH (tetramer concentration in legends; text says Kd per subunit), 25 mM Tris-HCl pH 7.5, 100 mM NaCl, 20 mM imidazole, 25 C 1 h. Conditions: protein: recombinant; chain copies: 4; hairpin.
Turning to B16, the Kd is 606 ± 164 nM.

Take B17: the Kd was determined as 355 ± 73 nM.
